In US12365732 (23ANDME, dated 2025):

Columns and labels:
[1] = target: hu-CD96D1 D3-hFc (human); test: ELISA, coated CD96D1D3-hFc
Description: (§1) CD96 binding of purified hybridoma antibodies: The hu-CD96 and cy-CD96 antigen binding ELISA was performed on the purified hybridoma antibodies. Briefly, 96-well MAXISORP® flat bottom plates (Thermo Fisher Scientific, Waltham, MA; Cat #439454) were coated overnight at 4° C. with 0.5 µg/mL of hu-CD96D1 D3-hFc and cynomolgus monkey CD96D1 D3-hFc in PBS. After removing the coating solution, unspecific binding was blocked by PBS containing 1% bovine serum albumin (blocking buffer) and incubation at room temperature for one hour. Plates were then washed three times with PBS and 0.05% TWEEN®-20 (wash buffer). Serial dilution of purified antibodies in PBS containing 0.5% BSA and 0.05% Tween 20 (ELISA buffer) was added to individual wells followed by incubation at room temperature for one hour with agitation. Plates were washed three times with wash buffer, then 100 µL/well of anti-mouse IgG-HRP (Thermo Fisher Scientific, Waltham, MA; Cat #626520) in ELISA buffer was added. […] Enzymatic color development was stopped with 50 µL/well of TMB stop solution (VWR/Avantor, Radnor, PA, USA; Cat #95059-200). Plates were analyzed with a SpectraMax i3X plate reader (Molecular Devices LLC, San Jose, CA, USA) at 450 nm.

[2] = target: T1, recombinant hu-CD96 (M1-M503-polyHis) (human, UniProt P40200 22-519); test: ELISA, blocks hu-CD96-his binding to coated CD155-hFc
T1 construct: also called hu-CD96-his
T1 sequence: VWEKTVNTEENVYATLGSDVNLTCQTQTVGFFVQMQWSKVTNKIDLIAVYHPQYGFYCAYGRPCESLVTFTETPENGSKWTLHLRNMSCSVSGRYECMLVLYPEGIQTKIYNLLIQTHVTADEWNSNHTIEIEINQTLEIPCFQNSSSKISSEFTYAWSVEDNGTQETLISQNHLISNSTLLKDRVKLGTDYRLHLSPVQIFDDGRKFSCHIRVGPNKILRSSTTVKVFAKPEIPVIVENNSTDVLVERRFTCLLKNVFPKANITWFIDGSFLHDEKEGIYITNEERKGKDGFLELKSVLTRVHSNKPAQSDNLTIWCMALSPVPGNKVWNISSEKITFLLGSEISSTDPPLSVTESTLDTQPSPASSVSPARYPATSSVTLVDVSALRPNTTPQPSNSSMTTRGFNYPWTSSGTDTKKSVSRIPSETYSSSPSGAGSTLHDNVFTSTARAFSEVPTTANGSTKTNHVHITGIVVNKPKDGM
Description: as §1
CD155 receptor blocking of purified hybridoma antibodies: Human CD155 blocking ELISA was performed on purified hybridoma antibodies following the same protocol as described for CD96 (above), except that serial dilution of purified antibodies 50 µL/well (starting at 1 µM, 1:5 dilution) in assay buffer was added into the reaction.

[3] = target: T2, cynomolgus monkey CD96D1 D3-hFc (cynomolgus monkey); test: ELISA, coated CD96D1D3-hFc
T2 construct: also called cy-CD96D1 D3
T2 sequence (chain, as listed by the source limits assumed): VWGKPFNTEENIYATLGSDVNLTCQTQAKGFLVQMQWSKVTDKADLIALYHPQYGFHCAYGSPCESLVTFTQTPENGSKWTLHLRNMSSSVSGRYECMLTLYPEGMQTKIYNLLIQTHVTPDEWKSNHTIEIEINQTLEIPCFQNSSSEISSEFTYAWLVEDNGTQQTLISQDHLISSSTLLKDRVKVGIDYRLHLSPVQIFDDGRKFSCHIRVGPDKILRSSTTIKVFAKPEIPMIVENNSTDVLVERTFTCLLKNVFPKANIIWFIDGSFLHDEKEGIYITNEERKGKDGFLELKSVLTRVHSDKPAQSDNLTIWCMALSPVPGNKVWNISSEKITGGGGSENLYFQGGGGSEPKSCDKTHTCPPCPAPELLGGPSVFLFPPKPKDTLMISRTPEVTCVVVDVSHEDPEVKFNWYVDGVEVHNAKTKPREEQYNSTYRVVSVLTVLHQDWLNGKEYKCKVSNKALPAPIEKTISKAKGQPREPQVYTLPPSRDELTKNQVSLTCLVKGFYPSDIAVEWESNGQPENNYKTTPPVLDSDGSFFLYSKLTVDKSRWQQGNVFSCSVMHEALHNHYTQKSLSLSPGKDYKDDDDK
Description: as §1

[4] = target: T3, hu-CD96 Fc (human, biotinylated in Table 16); test: SPR (Biacore), Fab
T3 construct: also called biotinylated hu-CD96-Fc

[5] = target: T4, hu-CD96 (soluble, isoform 2 extracellular domain) (human, UniProt P40200 22-516, biotinylated in Octet and blocking ELISA); test: CD155 blocking ELISA
T4 construct: the assays name only hu-CD96; also called hCD96; biotinylated hu-CD96
T4 sequence: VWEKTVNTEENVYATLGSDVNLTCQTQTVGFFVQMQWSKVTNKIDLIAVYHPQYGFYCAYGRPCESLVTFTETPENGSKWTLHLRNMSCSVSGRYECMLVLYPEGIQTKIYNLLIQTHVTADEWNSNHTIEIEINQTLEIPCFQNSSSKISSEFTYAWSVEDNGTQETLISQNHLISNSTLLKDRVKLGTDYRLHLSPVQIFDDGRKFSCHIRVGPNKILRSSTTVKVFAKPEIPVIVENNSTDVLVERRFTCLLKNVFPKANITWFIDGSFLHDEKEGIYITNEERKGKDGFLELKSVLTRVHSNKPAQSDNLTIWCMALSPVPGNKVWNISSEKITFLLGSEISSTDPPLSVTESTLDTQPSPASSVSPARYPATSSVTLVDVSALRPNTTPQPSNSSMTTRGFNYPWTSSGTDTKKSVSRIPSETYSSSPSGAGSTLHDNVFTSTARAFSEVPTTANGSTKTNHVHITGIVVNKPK

[6] = target: T4, hu-CD96 (soluble, isoform 2 …); test: BLI (Octet), biotin-CD96 on SA, Fab analyte

B1: 10H5, purified hybridoma antibody (antibody, V domains shown)
VH: QVQLQQSGADLARPGASIKLSCKASGYTFTGYGVTWVKQSTGQGLDWIGEIYPGTVITYYNAKFKGKATLTADKSSSTAYMELRSLTSEDSAVYFCARGLGRAMDYWGQGTSVTVSS
VL: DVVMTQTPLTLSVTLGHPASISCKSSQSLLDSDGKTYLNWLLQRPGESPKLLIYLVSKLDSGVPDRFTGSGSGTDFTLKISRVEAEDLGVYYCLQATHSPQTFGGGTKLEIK
notes: murine hybridoma IgG
EC50 [1]: 0.05 nM
IC50 [2]: 0.958 nM

B2: 12F8 (clone 12F8.12B5), purified hybridoma antibody (antibody, V domains shown)
VH: QVQLQQPGAELVTPGASVKLSCKASGFTFTNNWMHWVKQRPGQGLEWIGMIHPNSGITNINEKFKNKATVTVDKSSSTVYIQLSSLTSEDSAVYYCRSDGTYEGYFDYWGQGTPLTVSS
VL: DIVMTQSQKFMSTSVGDRVSVTCKASQNVGTAIVWYQKKPGQSPKTLIYSASTRYTGVPDRFTGSGSGTDFTLTISNVQSEDLAEYFCQQYSSSPLTFGSGTKLEIK
notes: murine hybridoma IgG
EC50 [1]: 0.25 nM
EC50 [3]: ~10 nM
IC50 [2]: 0.95 nM

B3: mAb1.v7.NGS8 Fab (Fab, V domains shown)
VH: EVQLVQSGAEVKKPGASVKVSCKASGFTFTNNFMHWVRQAPGQGLEWIGMIHANSGITNINEKFKNRVTMTTDTSTSTAYMELRSLRSEDTAVYYCRSDGIYEGYFDYWGQGTLVTVSS
VL: DIQLTQSPSSLSASVGDRVTITCKASQNVGTAIVWYQQKPGKAPKVLIYSASTRYTGVPSRFSGSGSGTDFTLTISSLQPEDFATYYCQQYSSSPLTFGQGTKVEIK
notes: Fab with 8xHis tag; also called W33F/P52aA/T97I
Kd [4]: 1.8 nM
koff [4]: 2.53e-05 s⁻¹
kon [4]: 16700 M⁻¹ s⁻¹
IC50 [5]: 0.2 nM
Kd [6]: 0.1 nM

B4: 16D9, purified hybridoma antibody (antibody, V domains shown)
VH: QVQLQQSGPELVKPGASVKISCKASGYNFNDYYINWVNQRPGQGLEWIGWIFPGRIITYYNEKFKGKATLTVDTSSNTAYMLLSSLTSEDSAVYFCARGVGEGFDYWGQGTTLTVSS
VL: ENVLTQSPAIMSATLGEKVTMNCRASSNVKYMYWYQQKSGVSPKLWIYYTSNLASGVPTRFSGSGSGTSYSLTISSVEAEDAATYYCQQFTSSPLTFGAGTKLELK
notes: murine hybridoma IgG
EC50 [1]: 0.05 nM
binding result [3]: no binding
IC50 [2]: 1.06 nM
